# What was measured:
# [1] = biological target: recombinant factor B derived from Tachypleus tridentatus (Tachypleus tridentatus) (UniProt Q27081); test: cell-based or functional assay
# [2] = biological target: T1, recombinant protein having factor B activity of Limulus polyphemus (recombinant second protein)
# T1 chain: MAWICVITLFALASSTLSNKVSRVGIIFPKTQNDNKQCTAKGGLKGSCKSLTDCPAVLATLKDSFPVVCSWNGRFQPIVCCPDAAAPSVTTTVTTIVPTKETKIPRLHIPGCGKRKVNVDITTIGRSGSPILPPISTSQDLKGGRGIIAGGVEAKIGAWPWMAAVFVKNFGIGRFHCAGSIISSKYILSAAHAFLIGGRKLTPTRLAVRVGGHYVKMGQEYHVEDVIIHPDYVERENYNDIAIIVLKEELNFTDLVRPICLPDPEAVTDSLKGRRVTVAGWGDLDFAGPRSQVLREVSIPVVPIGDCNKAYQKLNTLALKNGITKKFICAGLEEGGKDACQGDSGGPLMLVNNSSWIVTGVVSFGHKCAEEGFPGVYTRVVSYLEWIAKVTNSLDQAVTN
# [3] = biological target: T2, recombinant factor B derived from Tachypleus tridentatus, Q27081
# T2 chain: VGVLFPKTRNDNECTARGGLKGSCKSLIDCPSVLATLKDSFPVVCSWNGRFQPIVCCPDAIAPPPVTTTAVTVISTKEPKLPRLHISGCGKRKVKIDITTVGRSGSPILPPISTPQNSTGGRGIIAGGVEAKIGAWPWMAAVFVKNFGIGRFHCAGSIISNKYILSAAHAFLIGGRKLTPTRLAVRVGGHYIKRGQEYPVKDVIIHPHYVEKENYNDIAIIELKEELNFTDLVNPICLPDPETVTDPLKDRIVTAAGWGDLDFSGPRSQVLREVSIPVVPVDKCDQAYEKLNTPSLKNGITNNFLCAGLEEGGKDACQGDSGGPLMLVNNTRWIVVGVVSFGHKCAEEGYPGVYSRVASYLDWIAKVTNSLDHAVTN
# [4] = biological target: T3, recombinant protein having proclotting enzyme activity of Limulus polyphemus (recombinant third protein)
# T3 chain: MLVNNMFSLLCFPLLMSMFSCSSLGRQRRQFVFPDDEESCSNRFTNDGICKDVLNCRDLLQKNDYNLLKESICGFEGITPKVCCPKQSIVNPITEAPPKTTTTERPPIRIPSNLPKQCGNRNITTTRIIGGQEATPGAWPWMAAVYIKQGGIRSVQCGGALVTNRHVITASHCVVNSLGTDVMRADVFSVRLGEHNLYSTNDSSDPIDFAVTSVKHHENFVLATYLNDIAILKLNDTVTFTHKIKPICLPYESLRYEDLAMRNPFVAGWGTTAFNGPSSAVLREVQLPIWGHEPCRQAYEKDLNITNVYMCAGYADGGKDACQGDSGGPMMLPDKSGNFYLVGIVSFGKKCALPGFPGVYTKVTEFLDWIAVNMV
molecule,measurement,setting,value
recombinant factor C derived from the genus Tachypleus (Tachypleus tridentatus) (from UniProt P28175 26-1019) (enzyme),change in the absorbance in the cascade reaction system (TFC + TFB + TPCE + Boc-LGR-pNA) at endotoxin 0 EU/mL (blank),[1],0.51 mAbs/min
same,change in the absorbance in the cascade reaction system (TFC + TFB + TPCE + Boc-LGR-pNA) at endotoxin 0.05 EU/mL,[1],9.15 mAbs/min
"recombinant factor C derived from Limulus polyphemus (recombinant first protein, protein having factor C activity) (protein) RGVDLGLCDDTRFECKCGDPGYVFNVPAKQCTYFYRWRPYCKPCDKLEAKDVCPKYKRCQECRAGLDSCVSCPPNKYGTWCSGECQCKNGGICDQRTGACTCRDRYEGVHCEILQGCPLLQSDPQVQEVKNPPNDPQTIDYSCSPGFKLKGVARITCLPNGQWSSFPPKCIRECSMVSSLEHGKVNSPSADLIEGATLRFSCDSPYYLIGQETLTCQGNGQWSGQIPQCQKLVFCPDLDPVSHAEHQVKIGLEQKYGQFPQGTEVTYTCTGNYFLMGLDTLKCNPDGSWSGTQPSCVKVADREVNCDSKAVDFLDDVGEPVRIHCPAGCSLTAGTVWGTAIYHELSSVCRAAIHAGKVPNSGGAVHVVNNGPYSDFLASDLNGIKSDELKSLAQSFRFDYVSSSTAGRKSGCPDGWFEIEENCVYVTSKQRAWERAQGVCTNMAARLAVLDKDVIPSSLTETLRGKGLATTWIGLHRLDADNHFIWELMDRSSVALNDSLTFWAPGEPGNETNCVYLDIQDQLQPVWKTKSCFQPSSFVCMMDLSDKNKAKCKDPGPLENGHAKLHGQSIDGFYAGSSVRYSCEVLHYLSGTETVSCTSNGTWSAPKPRCIKVITCQTPPVPSYGSVDIKPPSRTNSISRVGSPFLRLPRLPLPLARAAGPPPKPRSAPPSTVDLSSKVKLPEGHYRVGSQAIYTCESRYYELLGSQGRRCDSNGKWSGRPASCIPVCGRSDSPRSPFIVNGNSTEIGQWPWQAGISRWLADHNMWFLQCGGALLNEKWIITAAHCVTYSATAEIIDPSQFKFYLGKYYRDDSKDDDYVQVREAIEIHVNPNYDPGNLNFDIALIQLKTSVALTTRVQPICLPTDLTTRENLKEGALAVVTGWGLNENNTYSEMIQQAVLPVVAASTCEQGYQDSGLPLTVTENMFCAGYKQGRYDACSGDSGGPLVFADDSRTDRRWVLEGIVSWGSPNGCGKSNQYGGFTKVNVFLSWIRQFI",change in the absorbance in the cascade reaction system (LFC + TFB + TPCE + Boc-LGR-pNA) at endotoxin 0 EU/mL (blank),[1],0.53 mAbs/min
same,change in the absorbance in the cascade reaction system (LFC + TFB + TPCE + Boc-LGR-pNA) at endotoxin 0.05 EU/mL,[1],14.3 mAbs/min
same,cleavage of synthetic substrate Boc-LGR-pNA (change in absorbance A405 nm) in the cascade reaction with endotoxin (0 and 0.05 EU/mL); FC + FB + PCE,[2],"when all the three types of recombinant proteins were included, cleavage of the synthetic substrate was observed"
same,activity in the cascade reaction system relative to TFC,[3],LFC showed the activity about 1.6 times (about 2.2 times when considering the difference in the protein amount) higher than TFC
same,"activity in the cascade reaction system relative to TFC, corrected for the difference in the protein amount",[3],LFC showed the activity about 1.6 times (about 2.2 times when considering the difference in the protein amount) higher than TFC
recombinant protein having factor B activity of Limulus polyphemus (recombinant second protein) (protein) MAWICVITLFALASSTLSNKVSRVGIIFPKTQNDNKQCTAKGGLKGSCKSLTDCPAVLATLKDSFPVVCSWNGRFQPIVCCPDAAAPSVTTTVTTIVPTKETKIPRLHIPGCGKRKVNVDITTIGRSGSPILPPISTSQDLKGGRGIIAGGVEAKIGAWPWMAAVFVKNFGIGRFHCAGSIISSKYILSAAHAFLIGGRKLTPTRLAVRVGGHYVKMGQEYHVEDVIIHPDYVERENYNDIAIIVLKEELNFTDLVRPICLPDPEAVTDSLKGRRVTVAGWGDLDFAGPRSQVLREVSIPVVPIGDCNKAYQKLNTLALKNGITKKFICAGLEEGGKDACQGDSGGPLMLVNNSSWIVTGVVSFGHKCAEEGFPGVYTRVVSYLEWIAKVTNSLDQAVTN,cleavage of synthetic substrate Boc-LGR-pNA (change in absorbance A405 nm) in the cascade reaction with endotoxin (0 and 0.05 EU/mL); FC + FB + PCE,[4],"when all the three types of recombinant proteins were included, cleavage of the synthetic substrate was observed"
